Here are results for two molecules from patent US20090305951A1 (published 2009).

The assay deals with FGF-receptor on dissociated neurons from embryonic rat hippocampus (rat). Put plainly: cell-based or functional assay.

On to VAENQQGKS [truncated version of the FG loop peptide, nonamer Val 76-Ser 84], for which the “neurite outgrowth from hippocampal neurons, 50 µM peptide, relative to the entire FG loop peptide” value is approximately 50%.

Regarding AENQQGK [truncated version of the FG loop peptide, heptamer Ala 77-Lys 83], the “neurite outgrowth from hippocampal neurons, 50 µM peptide, relative to the entire FG loop peptide” value is approximately 50%.
